{"source": "paper doi:10.1101/2022.02.02.478833", "about": "(bioRxiv, 2022)", "key": {"[1]": {"target": "human TANGO1 (21-131) cargo-recognition (MOTH) domain (human) (UniProt Q5JRA6)", "experiment": "NMR titration"}, "[2]": {"target": "T1, MOTH domain of human Otoraplin (18-128) (human, UniProt Q9NRC9 18-128, [U-15N]-enriched)", "T1 sequence (looked up)": "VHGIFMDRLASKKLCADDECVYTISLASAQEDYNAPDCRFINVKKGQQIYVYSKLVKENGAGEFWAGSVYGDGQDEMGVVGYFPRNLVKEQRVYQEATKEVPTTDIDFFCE", "experiment": "NMR titration"}}}
{"binder": "FHNYNVEELLGFLELYNSAA", "note": "[synthetic peptide of residues 132 to 151 of human TANGO1]", "values": [{"measurement": "Kd", "setting": "[1]", "value": 321, "unit": "µM"}, {"measurement": "koff", "setting": "[1]", "value": 1100, "unit": "s⁻¹"}]}
{"binder": "VPPPVPPRRR (peptide, UniProt Q07889 1149-1158, looked up)", "note": "[class II PPII helix peptide SOS1 (1149-1158)]", "values": [{"measurement": "Kd", "setting": "[2]", "value": 1300, "unit": "µM"}, {"measurement": "koff", "setting": "[2]", "value": 350000, "unit": "s⁻¹"}]}
